This assay deals with T1, Bak ΔBH3, Q16611.
T1 chain: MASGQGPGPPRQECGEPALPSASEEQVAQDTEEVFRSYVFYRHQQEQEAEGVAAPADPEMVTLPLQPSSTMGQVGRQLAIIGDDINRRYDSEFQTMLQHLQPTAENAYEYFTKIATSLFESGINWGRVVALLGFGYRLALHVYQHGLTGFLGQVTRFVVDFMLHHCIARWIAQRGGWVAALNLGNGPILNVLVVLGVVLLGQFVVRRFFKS
As to the kind of experiment: BiFC (flow cytometry). The conditions noted are these: chain shown with the change; 6 independent experiments; read off a plot.

B1: Bak, Q16611 H164A (protein)
chain: MASGQGPGPPRQECGEPALPSASEEQVAQDTEEVFRSYVFYRHQQEQEAEGVAAPADPEMVTLPLQPSSTMGQVGRQLAIIGDDINRRYDSEFQTMLQHLQPTAENAYEYFTKIATSLFESGINWGRVVALLGFGYRLALHVYQHGLTGFLGQVTRFVVDFMLAHCIARWIAQRGGWVAALNLGNGPILNVLVVLGVVLLGQFVVRRFFKS
Consider B1, for which the response (Mean Venus/Mean mRFP) was determined as 0.95.

Values taken from publication PMC10000386.
